Data on 16 molecules can be found in patent US20230257470A1 (published 2023).

Sequences and labels used below:
T1: human FcγRIIa type H (human, UniProt P12318 36-217)
T1 construct: also called FcyRIIaH; FcγRIIa(H)
T1 sequence: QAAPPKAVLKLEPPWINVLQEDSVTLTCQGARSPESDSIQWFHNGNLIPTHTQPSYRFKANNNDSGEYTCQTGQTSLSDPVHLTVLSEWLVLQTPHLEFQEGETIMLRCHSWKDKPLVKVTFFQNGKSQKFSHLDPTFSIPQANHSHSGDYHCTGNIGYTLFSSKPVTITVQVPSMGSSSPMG

T2: human FcγRIIb (human, UniProt P31994 43-217, limits assumed)
T2 construct: also called FcyRIfb; FcγIIB
T2 sequence: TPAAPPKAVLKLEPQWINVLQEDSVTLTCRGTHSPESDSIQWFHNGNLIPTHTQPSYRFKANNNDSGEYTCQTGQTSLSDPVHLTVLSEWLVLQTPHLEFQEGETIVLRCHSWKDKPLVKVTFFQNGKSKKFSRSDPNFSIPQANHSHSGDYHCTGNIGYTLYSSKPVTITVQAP

B1: IL6R-BF648/IL6R-L (antibody, human IgG1, name in EU numbering)
heavy: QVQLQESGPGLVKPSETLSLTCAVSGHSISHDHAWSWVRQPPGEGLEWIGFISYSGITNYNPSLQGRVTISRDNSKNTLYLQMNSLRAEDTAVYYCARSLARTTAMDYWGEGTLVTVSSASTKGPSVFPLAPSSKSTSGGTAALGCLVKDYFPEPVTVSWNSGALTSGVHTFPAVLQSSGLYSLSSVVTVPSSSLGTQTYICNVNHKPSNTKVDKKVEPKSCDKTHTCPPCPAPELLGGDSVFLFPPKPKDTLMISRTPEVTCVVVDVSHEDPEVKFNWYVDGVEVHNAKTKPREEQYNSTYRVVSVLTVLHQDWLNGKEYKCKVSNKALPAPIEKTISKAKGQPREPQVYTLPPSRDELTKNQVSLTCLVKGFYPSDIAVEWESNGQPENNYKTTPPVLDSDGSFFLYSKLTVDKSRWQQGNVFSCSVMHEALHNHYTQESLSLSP
light: DIQMTQSPSSLSASVGDRVTITCRASQDISSYLNWYQQKPGKAPKLLIYYTSRLHSGVPSRFSGSGSGTDFTFTISSLQPEDIATYYCQQGNTLPYTFGQGTKVEIK
notes: Alterations are those introduced into IL6R-B3
B2: IL6R-B3/IL6R-L (antibody, human IgG1)
heavy: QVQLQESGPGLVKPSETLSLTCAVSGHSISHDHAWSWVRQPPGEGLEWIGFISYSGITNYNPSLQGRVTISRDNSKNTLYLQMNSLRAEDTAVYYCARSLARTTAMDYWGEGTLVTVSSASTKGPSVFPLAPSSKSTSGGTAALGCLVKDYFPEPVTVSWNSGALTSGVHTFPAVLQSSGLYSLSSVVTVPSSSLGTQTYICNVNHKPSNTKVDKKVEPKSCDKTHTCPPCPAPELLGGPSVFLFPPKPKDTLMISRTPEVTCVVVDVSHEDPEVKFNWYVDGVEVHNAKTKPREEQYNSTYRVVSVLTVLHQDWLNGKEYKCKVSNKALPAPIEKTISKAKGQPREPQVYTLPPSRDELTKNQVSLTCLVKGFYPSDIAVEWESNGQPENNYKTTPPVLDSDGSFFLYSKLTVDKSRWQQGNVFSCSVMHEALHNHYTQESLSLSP
light: B1 light
notes: IL6R-G1d with K439E (EU numbering)
B3: IL6R-2B002/IL6R-L (antibody, human IgG1, name in EU numbering)
heavy: QVQLQESGPGLVKPSETLSLTCAVSGHSISHDHAWSWVRQPPGEGLEWIGFISYSGITNYNPSLQGRVTISRDNSKNTLYLQMNSLRAEDTAVYYCARSLARTTAMDYWGEGTLVTVSSASTKGPSVFPLAPSSKSTSGGTAALGCLVKDYFPEPVTVSWNSGALTSGVHTFPAVLQSSGLYSLSSVVTVPSSSLGTQTYICNVNHKPSNTKVDKKVEPKSCDKTHTCPPCPAPDLLGGDSVFLFPPKPKDTLMISRTPEVTCVVVDVSHEDPEVKFNWYVDGVEVHNAKTKPREEQYNSTYRVVSVLTVLHQDWLNGKEYKCKVSNKALPAPIEKTISKAKGQPREPQVYTLPPSRDELTKNQVSLTCLVKGFYPSDIAVEWESNGQPENNYKTTPPVLDSDGSFFLYSKLTVDKSRWQQGNVFSCSVMHEALHNHYTQESLSLSP
light: B1 light
B4: IL6R-2B169/IL6R-L (antibody, human IgG1, name in EU numbering)
heavy: B3 heavy with D235E, V325I
light: B1 light
B5: IL6R-2B171/IL6R-L (antibody, human IgG1, name in EU numbering)
heavy: B3 heavy with D235E, V325L
light: B1 light
B6: IL6R-2B128/IL6R-L (antibody, human IgG1, name in EU numbering)
heavy: B3 heavy with D235E, Y298D
light: B1 light
B7: IL6R-BP103/IL6R-L (antibody, human IgG1, name in EU numbering)
heavy: B3 heavy with D235E, S269V
light: B1 light
B8: IL6R-BP117/IL6R-L (antibody, human IgG1, name in EU numbering)
heavy: B3 heavy with D235E, K328D
light: B1 light
B9: IL6R-BP100/IL6R-L (antibody, human IgG1, name in EU numbering)
heavy: B3 heavy with D235E, S269A
light: B1 light
B10: IL6R-BP106/IL6R-L (antibody, human IgG1, name in EU numbering)
heavy: B3 heavy with D235E, H270D
light: B1 light
B11: IL6R-BP078/IL6R-L (antibody, human IgG1, name in EU numbering)
heavy: B3 heavy with D235E, A332M
light: B1 light
B12: IL6R-BP107/IL6R-L (antibody, human IgG1, name in EU numbering)
heavy: B3 heavy with D235E, H270E
light: B1 light
B13: IL6R-BP912/IL6R-L (antibody, human IgG1, name in EU numbering)
heavy: B3 heavy with D235E, A332R
light: B1 light
B14: IL6R-2B172/IL6R-L (antibody, human IgG1, name in EU numbering)
heavy: B3 heavy with D235E, V325M
light: B1 light
B15: IL6R-BP102/IL6R-L (antibody, human IgG1, name in EU numbering)
heavy: B3 heavy with D235E, S269Q
light: B1 light
B16: IL6R-BP110/IL6R-L (antibody, human IgG1, name in EU numbering)
heavy: B3 heavy with D235E, H270N
light: B1 light

Changes are numbered by the printed parent chain. Names and notes keep the numbering of the source.

T4 sequence (P08637 other isoform, or with tags, fused parts or gaps limits assumed): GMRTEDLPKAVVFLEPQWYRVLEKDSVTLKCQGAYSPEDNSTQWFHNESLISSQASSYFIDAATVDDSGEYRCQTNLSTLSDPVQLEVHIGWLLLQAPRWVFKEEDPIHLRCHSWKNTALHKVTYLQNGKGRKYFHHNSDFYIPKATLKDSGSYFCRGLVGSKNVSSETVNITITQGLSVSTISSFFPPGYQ

For the first test, the target named is T3, human FcγRIa (human, UniProt P12314 16-292, limits assumed).
T3 construct: also called FcyRIa; CD64
T3 sequence (P12314 16-292 limits assumed): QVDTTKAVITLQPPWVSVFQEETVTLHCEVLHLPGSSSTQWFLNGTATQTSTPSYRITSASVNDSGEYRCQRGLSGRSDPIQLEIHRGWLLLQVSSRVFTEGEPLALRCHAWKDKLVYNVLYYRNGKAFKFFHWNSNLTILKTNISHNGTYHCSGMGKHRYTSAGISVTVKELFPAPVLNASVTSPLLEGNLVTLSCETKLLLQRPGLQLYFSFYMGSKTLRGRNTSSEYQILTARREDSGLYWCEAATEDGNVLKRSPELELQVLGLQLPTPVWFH
Nature of the test: SPR (Biacore), FcγR over captured antibody; binding amount relative to IL6R-BF648/IL6R-L x100. (In SPR one partner is held on a chip, and binding of the other changes the refractive index at the surface.)
On to B1, for which the relative binding was 100 % of IL6R-BF648/IL6R-L.

For B2, the relative binding is 145 % of IL6R-BF648/IL6R-L.

Regarding B3, the relative binding was 118 % of IL6R-BF648/IL6R-L.

Turning to B4, the relative binding was 73 % of IL6R-BF648/IL6R-L.

As for B5, the relative binding was 116 % of IL6R-BF648/IL6R-L.

As to B6, the relative binding is 95 % of IL6R-BF648/IL6R-L.

With B7, the relative binding is 56 % of IL6R-BF648/IL6R-L.

On to B8, for which the relative binding was 124 % of IL6R-BF648/IL6R-L.

As for B9, the relative binding is 121 % of IL6R-BF648/IL6R-L.

As to B10, the relative binding was 127 % of IL6R-BF648/IL6R-L.

For B11, the relative binding is 106 % of IL6R-BF648/IL6R-L.

In the case of B12, the relative binding is 123 % of IL6R-BF648/IL6R-L.

Regarding B13, the relative binding is 60 % of IL6R-BF648/IL6R-L.

In the case of B14, the relative binding was 140 % of IL6R-BF648/IL6R-L.

On to B15, for which the relative binding is 104 % of IL6R-BF648/IL6R-L.

The target of another test is T1, human FcγRIIa type H. The description is as above.
Turning to B1, the relative binding was 100 % of IL6R-BF648/IL6R-L.

Regarding B2, the relative binding was 1600 % of IL6R-BF648/IL6R-L.

On to B16, for which the relative binding is 127 % of IL6R-BF648/IL6R-L.

For the molecule B3, the relative binding was 147 % of IL6R-BF648/IL6R-L.

For B4, the relative binding was 83 % of IL6R-BF648/IL6R-L.

Regarding B5, the relative binding was 115 % of IL6R-BF648/IL6R-L.

For B6, the relative binding was 37 % of IL6R-BF648/IL6R-L.

Consider B7, for which the relative binding is 69 % of IL6R-BF648/IL6R-L.

For B8, the relative binding was 96 % of IL6R-BF648/IL6R-L.

As for B9, the relative binding was 128 % of IL6R-BF648/IL6R-L.

B10: the relative binding is 110 % of IL6R-BF648/IL6R-L.

B11: the relative binding is 89 % of IL6R-BF648/IL6R-L.

As to B12, the relative binding is 114 % of IL6R-BF648/IL6R-L.

With B13, the relative binding was 93 % of IL6R-BF648/IL6R-L.

B14: the relative binding was 179 % of IL6R-BF648/IL6R-L.

As to B15, the relative binding was 66 % of IL6R-BF648/IL6R-L.

A further test addresses T2, human FcγRIIb. Described as above.
With B1, the relative binding was 100 % of IL6R-BF648/IL6R-L.

Regarding B2, the relative binding is 58 % of IL6R-BF648/IL6R-L.

Consider B16, for which the relative binding was 101 % of IL6R-BF648/IL6R-L.

As to B3, the relative binding is 116 % of IL6R-BF648/IL6R-L.

For B4, the relative binding was 104 % of IL6R-BF648/IL6R-L.

For the molecule B5, the relative binding is 113 % of IL6R-BF648/IL6R-L.

As for B7, the relative binding is 107 % of IL6R-BF648/IL6R-L.

With B8, the relative binding is 118 % of IL6R-BF648/IL6R-L.

As to B9, the relative binding is 110 % of IL6R-BF648/IL6R-L.

On to B10, for which the relative binding is 116 % of IL6R-BF648/IL6R-L.

Turning to B12, the relative binding is 118 % of IL6R-BF648/IL6R-L.

As for B14, the relative binding was 132 % of IL6R-BF648/IL6R-L.

As for B15, the relative binding was 106 % of IL6R-BF648/IL6R-L.

The next test has as its target T4, human FcγRIIIa type V (human, UniProt P08637 17-208, limits assumed).
T4 construct: also called FcyRIIIa; FcγRIIIaV
The test is described as above.
Turning to B1, the relative binding is 100 % of IL6R-BF648/IL6R-L.

Regarding B2, the relative binding is 3260 % of IL6R-BF648/IL6R-L.

In the case of B16, the relative binding is 127 % of IL6R-BF648/IL6R-L.

Consider B3, for which the relative binding was 147 % of IL6R-BF648/IL6R-L.

For the molecule B4, the relative binding was 94 % of IL6R-BF648/IL6R-L.

Take B5: the relative binding was 122 % of IL6R-BF648/IL6R-L.

As for B6, the relative binding was 96 % of IL6R-BF648/IL6R-L.

With B7, the relative binding was 77 % of IL6R-BF648/IL6R-L.

B9: the relative binding was 138 % of IL6R-BF648/IL6R-L.

Regarding B10, the relative binding was 127 % of IL6R-BF648/IL6R-L.

Regarding B11, the relative binding is 91 % of IL6R-BF648/IL6R-L.

In the case of B12, the relative binding is 129 % of IL6R-BF648/IL6R-L.

B13: the relative binding is 97 % of IL6R-BF648/IL6R-L.

For the molecule B14, the relative binding is 144 % of IL6R-BF648/IL6R-L.

On to B15, for which the relative binding was 86 % of IL6R-BF648/IL6R-L.
